Earlier results in article PMC2774623.

Molecular target: CK2 alpha (Homo sapiens) (UniProt P68400)
Assay: SPR

Chain of CK2 beta (P67870 2-215): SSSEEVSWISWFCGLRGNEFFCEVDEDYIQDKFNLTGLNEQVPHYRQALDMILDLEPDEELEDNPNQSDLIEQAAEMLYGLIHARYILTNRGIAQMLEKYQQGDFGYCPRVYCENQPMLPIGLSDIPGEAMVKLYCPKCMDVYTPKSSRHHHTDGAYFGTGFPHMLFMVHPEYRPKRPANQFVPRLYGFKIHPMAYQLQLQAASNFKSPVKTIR
Chain of CK2 alpha (Homo sapiens) (P68400 whole entry): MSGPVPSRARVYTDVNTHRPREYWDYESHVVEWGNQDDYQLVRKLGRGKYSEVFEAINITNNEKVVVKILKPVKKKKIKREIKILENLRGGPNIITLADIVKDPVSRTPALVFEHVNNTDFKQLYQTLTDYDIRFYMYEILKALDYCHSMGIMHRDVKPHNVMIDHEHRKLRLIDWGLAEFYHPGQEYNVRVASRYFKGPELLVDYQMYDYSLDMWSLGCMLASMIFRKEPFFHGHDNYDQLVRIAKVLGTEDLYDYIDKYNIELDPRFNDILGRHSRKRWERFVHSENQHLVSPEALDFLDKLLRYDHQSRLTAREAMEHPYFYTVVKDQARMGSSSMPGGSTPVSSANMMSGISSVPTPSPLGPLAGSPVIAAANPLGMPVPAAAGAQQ

- Kd: 40.8 nM
Substance: CK2 beta (from UniProt P67870)
